# According to the supplement of paper PMC9112550, “Optimization of the antimicrobial peptide Bac7 by deep mutational scanning” (BMC Biology, 2022):
# System: Escherichia coli TOP10
# Assay: shrunken log2 fold change of peptide-encoding DNA abundance (4.5 h post-induction vs induction); higher = less antimicrobial activity (less host growth inhibition)
# Conditions: time post-induction: 4.5 h; library: site-saturation at positions 5, 18, 19, 20
# 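Also: peptides expressed intracellularly from a pBAD plasmid library in pooled LB shake-flask culture, induced with 0.3% L-arabinose, DNA abundance read by NGS, three biological replicates, DESeq2 with apeglm shrinkage.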
row,Sequence,shrunken log2 fold change
1,RRIRKRPPRLPRPRPRPHDHPRP,-0.162
2,RRIRARPPRLPRPRPRPWQFPRP,0.456
3,RRIRPRPPRLPRPRPRPNFYPRP,0.356
4,RRIRYRPPRLPRPRPRPACTPRP,-0.292
5,RRIRGRPPRLPRPRPRPIDEPRP,0.433
6,RRIRDRPPRLPRPRPRPPFKPRP,0.18
7,RRIRIRPPRLPRPRPRPDFMPRP,-0.661
8,RRIRIRPPRLPRPRPRPLADPRP,-0.0519
9,RRIRSRPPRLPRPRPRPLHMPRP,0.0919
10,RRIRIRPPRLPRPRPRPHAQPRP,0.142
11,RRIRIRPPRLPRPRPRPQKYPRP,-0.784
12,RRIRFRPPRLPRPRPRPTLGPRP,0.175
13,RRIRFRPPRLPRPRPRPYPCPRP,-0.0436
14,RRIRDRPPRLPRPRPRPCPTPRP,0.131
15,RRIRPRPPRLPRPRPRPQVSPRP,-0.00288
16,RRIRCRPPRLPRPRPRPHMWPRP,-0.555
17,RRIRIRPPRLPRPRPRPTSGPRP,-0.00782
18,RRIRLRPPRLPRPRPRPGIYPRP,-0.318
19,RRIRNRPPRLPRPRPRPHWSPRP,-0.285
20,RRIRMRPPRLPRPRPRPICSPRP,0.241
21,RRIRWRPPRLPRPRPRPHLPPRP,-0.166
22,RRIRVRPPRLPRPRPRPYQTPRP,-0.0531
23,RRIRNRPPRLPRPRPRPGSFPRP,-0.0339

row,Sequence,shrunken log2 fold change
1,RRIRMRPPRLPRPRPRPWYWPRP,-0.724
2,RRIRSRPPRLPRPRPRPHRAPRP,0.0729
3,RRIRIRPPRLPRPRPRPWSRPRP,-0.187
4,RRIRHRPPRLPRPRPRPHHKPRP,-0.556
5,RRIRFRPPRLPRPRPRPMAAPRP,-0.0736
6,RRIRFRPPRLPRPRPRPDPWPRP,0.0822
7,RRIRMRPPRLPRPRPRPCKFPRP,0.12
8,RRIRDRPPRLPRPRPRPFVGPRP,-0.0346
9,RRIRRRPPRLPRPRPRPCDLPRP,0.0275
10,RRIRGRPPRLPRPRPRPWQGPRP,0.015
11,RRIRDRPPRLPRPRPRPAIAPRP,0.878
12,RRIRERPPRLPRPRPRPFGFPRP,-0.335
13,RRIRNRPPRLPRPRPRPPALPRP,0.132
14,RRIRWRPPRLPRPRPRPATEPRP,0.479
15,RRIRMRPPRLPRPRPRPGAAPRP,2.24
16,RRIRMRPPRLPRPRPRPREYPRP,0.314
17,RRIRIRPPRLPRPRPRPKTHPRP,-0.203
18,RRIRTRPPRLPRPRPRPMQTPRP,0.0276
19,RRIRMRPPRLPRPRPRPYHVPRP,-0.065
20,RRIRRRPPRLPRPRPRPMNMPRP,0.922
21,RRIRYRPPRLPRPRPRPNPSPRP,-0.0272
22,RRIRGRPPRLPRPRPRPTWMPRP,0.599
23,RRIRSRPPRLPRPRPRPVGTPRP,-0.0487

row,Sequence,shrunken log2 fold change
1,RRIRYRPPRLPRPRPRPADNPRP,-0.938
2,RRIRWRPPRLPRPRPRPTFSPRP,-0.0911
3,RRIRCRPPRLPRPRPRPLTAPRP,-0.119
4,RRIRNRPPRLPRPRPRPGPWPRP,0.0802
5,RRIRWRPPRLPRPRPRPCCTPRP,0.0894
6,RRIRYRPPRLPRPRPRPNSTPRP,-1.01
7,RRIRTRPPRLPRPRPRPYVIPRP,-1.03
8,RRIRSRPPRLPRPRPRPKLEPRP,0.165
9,RRIRPRPPRLPRPRPRPKTKPRP,0.00358
10,RRIRQRPPRLPRPRPRPSHLPRP,0.049
11,RRIRLRPPRLPRPRPRPRFPPRP,-0.0246
12,RRIRNRPPRLPRPRPRPGVDPRP,-0.154
13,RRIRMRPPRLPRPRPRPDQSPRP,0.0283
14,RRIRPRPPRLPRPRPRPYYLPRP,-0.745
15,RRIRVRPPRLPRPRPRPGWSPRP,0.434
16,RRIRARPPRLPRPRPRPVKPPRP,0.236
17,RRIRSRPPRLPRPRPRPGIAPRP,0.409
18,RRIRCRPPRLPRPRPRPVGPPRP,0.326
19,RRIRQRPPRLPRPRPRPNIQPRP,-0.228
20,RRIRWRPPRLPRPRPRPIAAPRP,0.976
21,RRIRPRPPRLPRPRPRPSANPRP,-0.00762
22,RRIRERPPRLPRPRPRPTRRPRP,0.059
23,RRIRIRPPRLPRPRPRPNKIPRP,-0.634

row,Sequence,shrunken log2 fold change
1,RRIRHRPPRLPRPRPRPPTHPRP,-0.117
2,RRIRYRPPRLPRPRPRPGWMPRP,-0.000507
3,RRIRSRPPRLPRPRPRPDFGPRP,0.0573
4,RRIRRRPPRLPRPRPRPMLDPRP,0.116
5,RRIRIRPPRLPRPRPRPQISPRP,0.0222
6,RRIRVRPPRLPRPRPRPIMTPRP,-0.359
7,RRIRRRPPRLPRPRPRPNLMPRP,0.85
8,RRIRCRPPRLPRPRPRPYPRPRP,-0.00439
9,RRIRLRPPRLPRPRPRPHLDPRP,-0.0911
10,RRIRLRPPRLPRPRPRPPQAPRP,0.872
11,RRIRGRPPRLPRPRPRPRATPRP,1.72
12,RRIRSRPPRLPRPRPRPTVSPRP,-0.221
13,RRIRFRPPRLPRPRPRPGFTPRP,-0.187
14,RRIRIRPPRLPRPRPRPLHRPRP,-0.307
15,RRIRCRPPRLPRPRPRPHYEPRP,-0.442
16,RRIRQRPPRLPRPRPRPFSPPRP,-0.0643
17,RRIRVRPPRLPRPRPRPSMSPRP,-0.147
18,RRIRARPPRLPRPRPRPPLNPRP,0.612
19,RRIRGRPPRLPRPRPRPNSTPRP,0.344
20,RRIRPRPPRLPRPRPRPNLIPRP,-0.203
21,RRIRHRPPRLPRPRPRPTQAPRP,0.255
22,RRIRWRPPRLPRPRPRPHCTPRP,-0.401
